Assay results reported in the supplement of paper PMC10724198.
± gives the standard deviation of the averaged measurements.

Tested on: Saccharomyces cerevisiae
Assay: protein stability index of tFT-peptide fusion (C-terminal peptide) (PSI (0-1 scale)); higher = more stable (slower turnover)
Details: genetic background: wild type; temperature: 30 C
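Further: PSI is a weighted mean of sequencing reads over stability bins, variants kept only with over 10 reads, mCherry proximal and sfGFP distal, peptide attached via GGGS linker.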

PPPPSLPPPLPL
protein stability index: 0.698 ± 0.022

PPPPSLVPPSPL
protein stability index: 0.677 ± 0.063

PPPPSPPSPPPP
protein stability index: 0.677 ± 0.0094

PPPPSPRPRPAP
protein stability index: 0.657 ± 0.025

PPPPSRLPYNPF
protein stability index: 0.662 ± 0.023

PPPPTPLPPPHD
protein stability index: 0.652 ± 0.037

PPPRPPLPPPPS
protein stability index: 0.727 ± 0.034

PPPRPPSTTSPC
protein stability index: 0.7037 ± 0.0047

PPPRPRPPPRPP
protein stability index: 0.581 ± 0.021

PPPRPTHSRPGP
protein stability index: 0.64 ± 0.057

PPPSHYHSQGHN
protein stability index: 0.686 ± 0.016

PPPSPHRLDHLT
protein stability index: 0.704 ± 0.016

PPPSPLPSPPPP
protein stability index: 0.5916 ± 0.0031

PPPSPLPSPPPS
protein stability index: 0.746 ± 0.043

PPPSPPLPIPPS
protein stability index: 0.697 ± 0.022

PPPSPPSPLSPP
protein stability index: 0.675 ± 0.073

PPPSSLVPFPLP
protein stability index: 0.7295 ± 0.0053

PPPSSPTSGHSP
protein stability index: 0.771 ± 0.19

PPPSTGGTRSNV
protein stability index: 0.6809 ± 0.0051

PPPTLSPPPPPL
protein stability index: 0.75 ± 0.034

PPPTPHPLRRTP
protein stability index: 0.735 ± 0.069

PPPTPSPPPLPP
protein stability index: 0.5748 ± 0.0057

PPPTPTFPVPPH
protein stability index: 0.6021 ± 0.00058

PPPTSPPRPASP
protein stability index: 0.697 ± 0.059

PPPVAPRSPAHL
protein stability index: 0.713 ± 0.074

PPPVPPLPSPLP
protein stability index: 0.649 ± 0.022

PPPVPPPSPPPT
protein stability index: 0.641 ± 0.07

PPPVSLFSPRSL
protein stability index: 0.781 ± 0.099

PPQPTTPFPSPQ
protein stability index: 0.6788 ± 0.0063

PPQRHTTPTSWG
protein stability index: 0.75862 ± 0.00034

PPQTSVASRPTR
protein stability index: 0.695 ± 0.019

PPRASPRMPAGC
protein stability index: 0.71506 ± 3.7e-05

PPRGDPRAYLPP
protein stability index: 0.654 ± 0.011

PPRNPAALPTPI
protein stability index: 0.718 ± 0.11

PPRPLAPSPTLF
protein stability index: 0.679 ± 0.021

PPRPLPPHPLLL
protein stability index: 0.681 ± 0.049

PPRPLPPPRPSS
protein stability index: 0.691 ± 0.037

PPRPLPPSLPPP
protein stability index: 0.695 ± 0.037

PPRPPFPLPSPL
protein stability index: 0.703 ± 0.025

PPRPPLHPLRLL
protein stability index: 0.6651 ± 0.0013

PPRPPLPRPLPP
protein stability index: 0.657 ± 0.041

PPRPPPNTPLPA
protein stability index: 0.725 ± 0.035

PPRPPPPHHVPS
protein stability index: 0.677 ± 0.093

PPRPPSSPLPPR
protein stability index: 0.733 ± 0.055

PPRPSSRVPPPA
protein stability index: 0.65 ± 0.059

PPRPTPLPHAPP
protein stability index: 0.681 ± 0.02

PPRPTPYPPLPP
protein stability index: 0.674 ± 0.062

PPRRPSFAPPHL
protein stability index: 0.704 ± 0.014

PPRSIPLPSPFH
protein stability index: 0.741 ± 0.016

PPRSPHLPRSSL
protein stability index: 0.664 ± 0.069

PPSHGYPPRLIP
protein stability index: 0.67842 ± 0.00022

PPSHPLSPLSRL
protein stability index: 0.722 ± 0.067

PPSLPPPIHLPL
protein stability index: 0.646 ± 0.011

PPSLPPSPPLPP
protein stability index: 0.694 ± 0.011

PPSLRFLLPPSA
protein stability index: 0.685 ± 0.058

PPSPDATPLSHI
protein stability index: 0.678 ± 0.035

PPSPHPSASTRP
protein stability index: 0.714 ± 0.04

PPSPLPPTPSHS
protein stability index: 0.737 ± 0.076

PPSPLPSPPPTF
protein stability index: 0.718 ± 0.025

PPSPLYAFPYPL
protein stability index: 0.757 ± 0.0099

PPSPPDSPPPAS
protein stability index: 0.665 ± 0.014

PPSPPPPALSSS
protein stability index: 0.665 ± 0.056

PPSPPPPLPLLP
protein stability index: 0.661 ± 0.077

PPSPPPPLYPPA
protein stability index: 0.683 ± 0.038

PPSPPPPPPFVP
protein stability index: 0.717 ± 0.033

PPSPPPPPRFLP
protein stability index: 0.662 ± 0.041

PPSPPPPPVVVP
protein stability index: 0.606 ± 0.11

PPSPSLRSLPRP
protein stability index: 0.626 ± 0.064

PPSPSPPPPPPT
protein stability index: 0.648 ± 0.04

PPSRAPPAFPPL
protein stability index: 0.827 ± 0.2

PPSVLLPLACPP
protein stability index: 0.677 ± 0.008

PPSVPAPPLPDP
protein stability index: 0.675 ± 0.038

PPTAPTYRQSQP
protein stability index: 0.6754 ± 0.001

PPTFPHLPHSWP
protein stability index: 0.792 ± 0.018

PPTHPPPRLTPL
protein stability index: 0.707 ± 0.081

PPTIHPSPAAPH
protein stability index: 0.623 ± 0.062

PPTPGPPPLRYP
protein stability index: 0.705 ± 0.068

PPTPLIPPLPLH
protein stability index: 0.716 ± 0.043

PPTPPLPPRLPP
protein stability index: 0.686 ± 0.0098

PPTPPSIPPSPP
protein stability index: 0.624 ± 0.064

PPTPSPATSPPP
protein stability index: 0.713 ± 0.034
